Reference: patent US20240270846A1 (published 2024)

molecular target: T1, CD3 epsilon homodimer protein (UniProt P07766 23-126); assay: SPR (Biacore T200), CD3e homodimer on CM4 chip, antibody as analyte; KD ratio vs unaltered GLS3000;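 further: CD3 epsilon homodimer amine-coupled to the sensor surface, antibodies injected as analyte at 25 °C with HBS-EP+ running buffer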
T1 construct: also called CD3 (CD3 epsilon)
T1 sequence (P07766 23-126): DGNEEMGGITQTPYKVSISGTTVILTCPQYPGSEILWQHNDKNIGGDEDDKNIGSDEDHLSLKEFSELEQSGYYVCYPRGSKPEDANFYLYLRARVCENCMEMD

Row | KD ratio to GLS3000 | Binder
1 | 4.46 ratio | CE115HA000/GLS3000 T31N one-arm antibody (antibody, human IgG1, kappa, L234A L235A, N297A, name in Kabat numbering, one-arm IgG1) heavy: QVQLVESGGGVVQPGRSLRLSCAASGFTFSNAWMHWVRQAPGKGLEWVAQIKAKSNNYATYYAESVKGRFTISRDDSKNSLYLQMNSLKTEDTAVYYCRYVHYGAYYGVDAWGQGTTVTVSSASTKGPSVFPLAPSSKSTSGGTAALGCLVKDYFPEPVTVSWNSGALTSGVHTFPAVLQSSGLYSLSSVVTVPSSSLGTQTYICNVNHKPSNTKVDKKVEPKSCDKTHTCPPCPAPEAAGGPSVFLFPPKPKDTLMISRTPEVTCVVVDVSHEDPEVKFNWYVDGVEVHNAKTKPREEQYASTYRVVSVLTVLHQDWLNGKEYKCKVSNKALPAPIEKTISKAKGQPREPQVYTLPPSRCELTKNQVSLSCAVKGFYPSDIAVEWESNGQPENNYKTTPPVLDSDGSFFLVSKLTVDKSRWQQGNVFSCSVMHEALHNHYTQKSLSLSPDYKDDDDK EPKSSDKTHTCPPCPAPELLGGPSVFLFPPKPKDTLMISRTPEVTCVVVDVSHEDPEVKFNWYVDGVEVHNAKTKPREEQYNSTYRVVSVLTVLHQDWLNGKEYKCKVSNKALPAPIEKTISKAKGQPREPQVCTLPPSRDELTKNQVSLWCLVKGFYPSDIAVEWESNGQPENNYKTTPPVLDSDGSFFLYSKLTVDKSRWQQGNVFSCSVMHEALHNRYTQKSLSLSP light: DIVMTQSPLSLPVTPGEPASISCRSSQSLVHSNRNNYLHWYQQKPGQAPRLLIYKVSNRFSGVPDRFSGSGSGTDFTLKISRVEAEDVGVYYCGQGTQVPYTFGQGTKLEIKRTVAAPSVFIFPPSDEQLKSGTASVVCLLNNFYPREAKVQWKVDNALQSGNSQESVTEQDSKDSTYSLSSTLTLSKADYEKHKVYACEVTHQGLSSPVTKSFNRGEC
2 | 19.6 ratio | CE115HA000/GLS3000 T92E one-arm antibody (antibody, human IgG1, kappa, L234A L235A, N297A, name in Kabat numbering, one-arm IgG1) heavy: QVQLVESGGGVVQPGRSLRLSCAASGFTFSNAWMHWVRQAPGKGLEWVAQIKAKSNNYATYYAESVKGRFTISRDDSKNSLYLQMNSLKTEDTAVYYCRYVHYGAYYGVDAWGQGTTVTVSSASTKGPSVFPLAPSSKSTSGGTAALGCLVKDYFPEPVTVSWNSGALTSGVHTFPAVLQSSGLYSLSSVVTVPSSSLGTQTYICNVNHKPSNTKVDKKVEPKSCDKTHTCPPCPAPEAAGGPSVFLFPPKPKDTLMISRTPEVTCVVVDVSHEDPEVKFNWYVDGVEVHNAKTKPREEQYASTYRVVSVLTVLHQDWLNGKEYKCKVSNKALPAPIEKTISKAKGQPREPQVYTLPPSRCELTKNQVSLSCAVKGFYPSDIAVEWESNGQPENNYKTTPPVLDSDGSFFLVSKLTVDKSRWQQGNVFSCSVMHEALHNHYTQKSLSLSPDYKDDDDK EPKSSDKTHTCPPCPAPELLGGPSVFLFPPKPKDTLMISRTPEVTCVVVDVSHEDPEVKFNWYVDGVEVHNAKTKPREEQYNSTYRVVSVLTVLHQDWLNGKEYKCKVSNKALPAPIEKTISKAKGQPREPQVCTLPPSRDELTKNQVSLWCLVKGFYPSDIAVEWESNGQPENNYKTTPPVLDSDGSFFLYSKLTVDKSRWQQGNVFSCSVMHEALHNRYTQKSLSLSP light: DIVMTQSPLSLPVTPGEPASISCRSSQSLVHSNRNTYLHWYQQKPGQAPRLLIYKVSNRFSGVPDRFSGSGSGTDFTLKISRVEAEDVGVYYCGQGEQVPYTFGQGTKLEIKRTVAAPSVFIFPPSDEQLKSGTASVVCLLNNFYPREAKVQWKVDNALQSGNSQESVTEQDSKDSTYSLSSTLTLSKADYEKHKVYACEVTHQGLSSPVTKSFNRGEC

Further lines, the binder ahead of its results:

Row | Binder | KD ratio to GLS3000
3 | CE115HA000/GLS3000 T92D one-arm antibody (antibody, human IgG1, kappa, L234A L235A, N297A, name in Kabat numbering, one-arm IgG1) heavy: QVQLVESGGGVVQPGRSLRLSCAASGFTFSNAWMHWVRQAPGKGLEWVAQIKAKSNNYATYYAESVKGRFTISRDDSKNSLYLQMNSLKTEDTAVYYCRYVHYGAYYGVDAWGQGTTVTVSSASTKGPSVFPLAPSSKSTSGGTAALGCLVKDYFPEPVTVSWNSGALTSGVHTFPAVLQSSGLYSLSSVVTVPSSSLGTQTYICNVNHKPSNTKVDKKVEPKSCDKTHTCPPCPAPEAAGGPSVFLFPPKPKDTLMISRTPEVTCVVVDVSHEDPEVKFNWYVDGVEVHNAKTKPREEQYASTYRVVSVLTVLHQDWLNGKEYKCKVSNKALPAPIEKTISKAKGQPREPQVYTLPPSRCELTKNQVSLSCAVKGFYPSDIAVEWESNGQPENNYKTTPPVLDSDGSFFLVSKLTVDKSRWQQGNVFSCSVMHEALHNHYTQKSLSLSPDYKDDDDK EPKSSDKTHTCPPCPAPELLGGPSVFLFPPKPKDTLMISRTPEVTCVVVDVSHEDPEVKFNWYVDGVEVHNAKTKPREEQYNSTYRVVSVLTVLHQDWLNGKEYKCKVSNKALPAPIEKTISKAKGQPREPQVCTLPPSRDELTKNQVSLWCLVKGFYPSDIAVEWESNGQPENNYKTTPPVLDSDGSFFLYSKLTVDKSRWQQGNVFSCSVMHEALHNRYTQKSLSLSP light: DIVMTQSPLSLPVTPGEPASISCRSSQSLVHSNRNTYLHWYQQKPGQAPRLLIYKVSNRFSGVPDRFSGSGSGTDFTLKISRVEAEDVGVYYCGQGDQVPYTFGQGTKLEIKRTVAAPSVFIFPPSDEQLKSGTASVVCLLNNFYPREAKVQWKVDNALQSGNSQESVTEQDSKDSTYSLSSTLTLSKADYEKHKVYACEVTHQGLSSPVTKSFNRGEC | 11.2 ratio
4 | CE115HA000/GLS3000 T92A one-arm antibody (antibody, human IgG1, kappa, L234A L235A, N297A, name in Kabat numbering, one-arm IgG1) heavy: QVQLVESGGGVVQPGRSLRLSCAASGFTFSNAWMHWVRQAPGKGLEWVAQIKAKSNNYATYYAESVKGRFTISRDDSKNSLYLQMNSLKTEDTAVYYCRYVHYGAYYGVDAWGQGTTVTVSSASTKGPSVFPLAPSSKSTSGGTAALGCLVKDYFPEPVTVSWNSGALTSGVHTFPAVLQSSGLYSLSSVVTVPSSSLGTQTYICNVNHKPSNTKVDKKVEPKSCDKTHTCPPCPAPEAAGGPSVFLFPPKPKDTLMISRTPEVTCVVVDVSHEDPEVKFNWYVDGVEVHNAKTKPREEQYASTYRVVSVLTVLHQDWLNGKEYKCKVSNKALPAPIEKTISKAKGQPREPQVYTLPPSRCELTKNQVSLSCAVKGFYPSDIAVEWESNGQPENNYKTTPPVLDSDGSFFLVSKLTVDKSRWQQGNVFSCSVMHEALHNHYTQKSLSLSPDYKDDDDK EPKSSDKTHTCPPCPAPELLGGPSVFLFPPKPKDTLMISRTPEVTCVVVDVSHEDPEVKFNWYVDGVEVHNAKTKPREEQYNSTYRVVSVLTVLHQDWLNGKEYKCKVSNKALPAPIEKTISKAKGQPREPQVCTLPPSRDELTKNQVSLWCLVKGFYPSDIAVEWESNGQPENNYKTTPPVLDSDGSFFLYSKLTVDKSRWQQGNVFSCSVMHEALHNRYTQKSLSLSP light: DIVMTQSPLSLPVTPGEPASISCRSSQSLVHSNRNTYLHWYQQKPGQAPRLLIYKVSNRFSGVPDRFSGSGSGTDFTLKISRVEAEDVGVYYCGQGAQVPYTFGQGTKLEIKRTVAAPSVFIFPPSDEQLKSGTASVVCLLNNFYPREAKVQWKVDNALQSGNSQESVTEQDSKDSTYSLSSTLTLSKADYEKHKVYACEVTHQGLSSPVTKSFNRGEC | 1.35 ratio
5 | CE115HA000/GLS3000 T92I one-arm antibody (antibody, human IgG1, kappa, L234A L235A, N297A, name in Kabat numbering, one-arm IgG1) heavy: QVQLVESGGGVVQPGRSLRLSCAASGFTFSNAWMHWVRQAPGKGLEWVAQIKAKSNNYATYYAESVKGRFTISRDDSKNSLYLQMNSLKTEDTAVYYCRYVHYGAYYGVDAWGQGTTVTVSSASTKGPSVFPLAPSSKSTSGGTAALGCLVKDYFPEPVTVSWNSGALTSGVHTFPAVLQSSGLYSLSSVVTVPSSSLGTQTYICNVNHKPSNTKVDKKVEPKSCDKTHTCPPCPAPEAAGGPSVFLFPPKPKDTLMISRTPEVTCVVVDVSHEDPEVKFNWYVDGVEVHNAKTKPREEQYASTYRVVSVLTVLHQDWLNGKEYKCKVSNKALPAPIEKTISKAKGQPREPQVYTLPPSRCELTKNQVSLSCAVKGFYPSDIAVEWESNGQPENNYKTTPPVLDSDGSFFLVSKLTVDKSRWQQGNVFSCSVMHEALHNHYTQKSLSLSPDYKDDDDK EPKSSDKTHTCPPCPAPELLGGPSVFLFPPKPKDTLMISRTPEVTCVVVDVSHEDPEVKFNWYVDGVEVHNAKTKPREEQYNSTYRVVSVLTVLHQDWLNGKEYKCKVSNKALPAPIEKTISKAKGQPREPQVCTLPPSRDELTKNQVSLWCLVKGFYPSDIAVEWESNGQPENNYKTTPPVLDSDGSFFLYSKLTVDKSRWQQGNVFSCSVMHEALHNRYTQKSLSLSP light: DIVMTQSPLSLPVTPGEPASISCRSSQSLVHSNRNTYLHWYQQKPGQAPRLLIYKVSNRFSGVPDRFSGSGSGTDFTLKISRVEAEDVGVYYCGQGIQVPYTFGQGTKLEIKRTVAAPSVFIFPPSDEQLKSGTASVVCLLNNFYPREAKVQWKVDNALQSGNSQESVTEQDSKDSTYSLSSTLTLSKADYEKHKVYACEVTHQGLSSPVTKSFNRGEC | 1.91 ratio
6 | CE115HA000/GLS3000 T31P one-arm antibody (antibody, human IgG1, kappa, L234A L235A, N297A, name in Kabat numbering, one-arm IgG1) heavy: QVQLVESGGGVVQPGRSLRLSCAASGFTFSNAWMHWVRQAPGKGLEWVAQIKAKSNNYATYYAESVKGRFTISRDDSKNSLYLQMNSLKTEDTAVYYCRYVHYGAYYGVDAWGQGTTVTVSSASTKGPSVFPLAPSSKSTSGGTAALGCLVKDYFPEPVTVSWNSGALTSGVHTFPAVLQSSGLYSLSSVVTVPSSSLGTQTYICNVNHKPSNTKVDKKVEPKSCDKTHTCPPCPAPEAAGGPSVFLFPPKPKDTLMISRTPEVTCVVVDVSHEDPEVKFNWYVDGVEVHNAKTKPREEQYASTYRVVSVLTVLHQDWLNGKEYKCKVSNKALPAPIEKTISKAKGQPREPQVYTLPPSRCELTKNQVSLSCAVKGFYPSDIAVEWESNGQPENNYKTTPPVLDSDGSFFLVSKLTVDKSRWQQGNVFSCSVMHEALHNHYTQKSLSLSPDYKDDDDK EPKSSDKTHTCPPCPAPELLGGPSVFLFPPKPKDTLMISRTPEVTCVVVDVSHEDPEVKFNWYVDGVEVHNAKTKPREEQYNSTYRVVSVLTVLHQDWLNGKEYKCKVSNKALPAPIEKTISKAKGQPREPQVCTLPPSRDELTKNQVSLWCLVKGFYPSDIAVEWESNGQPENNYKTTPPVLDSDGSFFLYSKLTVDKSRWQQGNVFSCSVMHEALHNRYTQKSLSLSP light: DIVMTQSPLSLPVTPGEPASISCRSSQSLVHSNRNPYLHWYQQKPGQAPRLLIYKVSNRFSGVPDRFSGSGSGTDFTLKISRVEAEDVGVYYCGQGTQVPYTFGQGTKLEIKRTVAAPSVFIFPPSDEQLKSGTASVVCLLNNFYPREAKVQWKVDNALQSGNSQESVTEQDSKDSTYSLSSTLTLSKADYEKHKVYACEVTHQGLSSPVTKSFNRGEC | 10.8 ratio
